Key:
[1] = test system: HEP3B; assay: Monolayer assay, 96h treatment, HEP3B; assay type: cell-based, human
Experimental: (§1) Monolayer Assay Propidium Iodid (PI). Cells were harvested from exponential phase cultures, counted and depending on the cell line 3.000 to 20.000 cells were plated in 96-well flat-bottom microtiter plates After a 24 h recovery period to allow cells to resume exponential growth, 10 μl of culture medium (four control wells/plate) or culture medium with the test compound were added by a liquid handling robotic system and treatment continued for four days. Compounds were applied in half-log increments at 10 concentrations in duplicate. Three independent experiments were performed. Cells were then washed with 200 μl PBS to remove dead cells followed by addition of 200 μl of a solution containing 7 μg/ml propidium iodide (PI) and 0.1% (v/v) Triton X-100. After an incubation period of 1-2 h at room temperature, fluorescence (FU) was measured using the Cytofluor 4000 microplate reader (excitation λ=530 nm, emission λ=620 nm) to quantify the amount of attached viable cells. Concentrations required for 50% inhibition of cell growth (IC50) were calculated by non-linear regression (log[conc. of inhibitor]versus response (% T/C)) using the analysis software GraphPad Prism®, Prism 5 for windows, version 5.01 (GraphPad Software Inc., CA).
CROMOC36—in vitro activity Human hepatocellular carcinoma cell lines IC50 values of CROMOC36 and Sorafenib, 96h treatment. […]

[2] = test system: PAXF 1657L; assay: Propidium iodide monolayer assay, PAXF 1657L; assay type: cell-based, human; details: four days
Experimental: as §1, with “Concentrations required for 50% inhibition of cell growth (IC50) were calculated by non-linear regression (log[conc. of inhibitor]versus response (% T/C)) using the analysis software GraphPad Prism®, Prism 5 for windows, version 5.01 (GraphPad Software Inc., CA).” left out
(§2) CROMOC36—in vitro activity Human pancreatic carcinoma cell lines. […] Antitumor activity was assessed after four days of CROMOC36 treatment using a propidium iodide based monolayer proliferation assay. […]

[3] = test system: primary hepatocytes; assay: SRB assay for 96 hours, primary hepatocytes; assay type: cell-based; details: non-tumor cells primary hepatocytes, SRB 96 hours
Experimental: Cells were harvested from exponential phase cultures, and depending on the cell line 10.000 to 30.000 cells were plated in 96-well flat-bottom microtiter plates. […] Compounds were applied at 9 concentrations eight wells/concentration). At least three independent experiments were performed. For SRB staining, cells were fixed with SRB01 for 1h at 4° C. (final concentration of TCA=10%) washed with a plate washer (Hydroflex, Tecan©) for five times with H2O; and stained with 100 μl of SRB02 at room temperature for 10 min following 4 washes in SRB03 and finally 100 μl of developer solution SRB04 for 5 minutes with shaking. Optical density was assessed using a plate-reader (Sunrise, Tecan©) at 540 nm. Concentrations required for 50% inhibition of cell growth (IC50) were calculated by non-linear regression (log[conc. of inhibitor] versus response (% T/C)) using the analysis software GraphPad Prism®, Prism 5 for windows, version 5.01 (GraphPad Software Inc., CA). (SRB Buffers FIG. 25).

[4] = test system: human colon carcinoma with null p53 (HCT116 p53−/−) xenograft; assay: HCT116 p53-/- xenograft, CROMOC36 versus nuclease impaired CROMOC60; assay type: in vivo, mouse; details: s.c. 4 mg/kg on days 0, 1, 2, 3, 6, 7, 8, 9, 10, 20, 22, 24
Experimental: FIG. 7: HCT116 p53−/− human colon carcinoma xenograft. Treatment on advanced tumors (volume >50 mm^3). Dose: CROMOC36 4 mg/kg; CROMOC60 4 mg/kg. Treatment: s.c. administration on day 0, 1, 2, 3, 6, 7, 8, 9, 10, 20, 22, 24.
A study was conducted to test the antitumor efficacy of CROMOC36 on an advanced human colon carcinoma with null p53 (HCT116 p53−/−) xenograft model and compare it to a vehicle or a nuclease impaired version CROMOC60 treatment group. CROMOC60 is no more catalytically active as a nuclease but is able to be transported to the nucleus of a cell. This study was also designed to proof that the active principle of the tumor growth inhibiting activity of CROMOC is the nuclease activity in vivo. CROMOC36 and CROMOC60 were both administered subcutaneously (s.c.) at 4 mg/kg dose on the days 0, 1, 2, 3, 6, 7, 8, 9, 10, 20, 22, 24. […] This also proofs that CROMOC36 can serve as a valid DNA DSB reagent.

[5] = test system: PATU8902; assay: Propidium iodide monolayer assay, PATU8902; assay type: cell-based, human; details: PATU8902, four days
Experimental: as §1, with “Concentrations required for 50% inhibition of cell growth (IC50) were calculated by non-linear regression (log[conc. of inhibitor]versus response (% T/C)) using the analysis software GraphPad Prism®, Prism 5 for windows, version 5.01 (GraphPad Software Inc., CA).” left out
as §2

[6] = test system: M5076 ovarian reticulum sarcoma tumor cell line; assay: M5076 artificial hepatic metastasis model, i.v. route
[7] = test system: MIAPACA2; assay: Propidium iodide monolayer assay, MIAPACA2; assay type: cell-based, human; details: MIAPACA2, four days
Experimental: as §1, with “Concentrations required for 50% inhibition of cell growth (IC50) were calculated by non-linear regression (log[conc. of inhibitor]versus response (% T/C)) using the analysis software GraphPad Prism®, Prism 5 for windows, version 5.01 (GraphPad Software Inc., CA).” left out
as §2

[8] = Toxicology experiments and various tumor models, cardiotoxicity; assay type: in vivo

B1: CROMOC36: single chain PvuII endonuclease fused at its C-terminus to DDM36, PEGylated final product used in the Examples (protein)
chain: MSHPDLNKLLELWPHIQEYQDLALKHGINDIFQDNGGKLLQVLLITGLTVLPGREGNDAVDNAGQEYELKSINIDLTKGFSTHHHMNPVIIAKYRQVPWIFAIYRGIAIEAIYRLEPKDLEFYYDKWERKWYSDGHKDINNPKIPVKYVMEHGTKIYGSGGSGGSSHPDLNKLLELWPHIQEYQDLALKHGINDIFQDNGGKLLQVLLITGLTVLPGREGNDAVDNAGQEYELKSINIDLTKGFSTHHHMNPVIIAKYRQVPWIFAIYRGIAIEAIYRLEPKDLEFYYDKWERKWYSDGHKDINNPKIPVKYVMEHGTKIYGNSGSGKKKKKGKGSGLGSGKKKDPLGSGLGSGKKKKKGKGSGLGSGKKKDPLGST
modifications: PEGylated; peptide, CROMOC36
B1 gave an IC50 [1] of 12.2 nM, an IC50 [2] of 4.73 nM and an IC50 [3] of over 10000 nM. The “progression of HCT116 p53−/− human colon carcinoma as compared to vehicle control” value [4] was “significantly inhibited”, the IC50 [5] was 2.33 nM and the “% ILS (mean survival time versus control group)” value ([6]; CROMOC36 16 mg/kg i.v. q7dx3, Doxorubicin 6 mg/kg q4dx3 (MTD)) was 68%. The “antimetastatic activity in Liver M5076 allograft” value ([6]; i.v. route, 16 mg/kg q7dx3) was “strong antimetastatic activity”, the IC50 [7] was about 10 nM and the cardiotoxic effects [8] was “no cardiotoxic effects were observed”.

Source: US20250295796A1, “CELL PENETRATING POLYPEPTIDES (CPPS) AND THEIR USE IN HUMAN THERAPY” (RDP PHARMA AG, priority 2021, published 2025)
